Tested on: LTRP5-ADD-ZIM3 (dCasX491 fused to DNMT3A ADD/CD, DNMT3L, ZIM3-KRAB) (synthetic construct)
Assay: cell_activity
Details: HEK293T day 8; non-targeting control

LTRP5-ADD-ZIM3 (dCasX491 fused to DNMT3A ADD/CD, DNMT3L, ZIM3-KRAB) (synthetic construct), sequence (chain, as listed by the source): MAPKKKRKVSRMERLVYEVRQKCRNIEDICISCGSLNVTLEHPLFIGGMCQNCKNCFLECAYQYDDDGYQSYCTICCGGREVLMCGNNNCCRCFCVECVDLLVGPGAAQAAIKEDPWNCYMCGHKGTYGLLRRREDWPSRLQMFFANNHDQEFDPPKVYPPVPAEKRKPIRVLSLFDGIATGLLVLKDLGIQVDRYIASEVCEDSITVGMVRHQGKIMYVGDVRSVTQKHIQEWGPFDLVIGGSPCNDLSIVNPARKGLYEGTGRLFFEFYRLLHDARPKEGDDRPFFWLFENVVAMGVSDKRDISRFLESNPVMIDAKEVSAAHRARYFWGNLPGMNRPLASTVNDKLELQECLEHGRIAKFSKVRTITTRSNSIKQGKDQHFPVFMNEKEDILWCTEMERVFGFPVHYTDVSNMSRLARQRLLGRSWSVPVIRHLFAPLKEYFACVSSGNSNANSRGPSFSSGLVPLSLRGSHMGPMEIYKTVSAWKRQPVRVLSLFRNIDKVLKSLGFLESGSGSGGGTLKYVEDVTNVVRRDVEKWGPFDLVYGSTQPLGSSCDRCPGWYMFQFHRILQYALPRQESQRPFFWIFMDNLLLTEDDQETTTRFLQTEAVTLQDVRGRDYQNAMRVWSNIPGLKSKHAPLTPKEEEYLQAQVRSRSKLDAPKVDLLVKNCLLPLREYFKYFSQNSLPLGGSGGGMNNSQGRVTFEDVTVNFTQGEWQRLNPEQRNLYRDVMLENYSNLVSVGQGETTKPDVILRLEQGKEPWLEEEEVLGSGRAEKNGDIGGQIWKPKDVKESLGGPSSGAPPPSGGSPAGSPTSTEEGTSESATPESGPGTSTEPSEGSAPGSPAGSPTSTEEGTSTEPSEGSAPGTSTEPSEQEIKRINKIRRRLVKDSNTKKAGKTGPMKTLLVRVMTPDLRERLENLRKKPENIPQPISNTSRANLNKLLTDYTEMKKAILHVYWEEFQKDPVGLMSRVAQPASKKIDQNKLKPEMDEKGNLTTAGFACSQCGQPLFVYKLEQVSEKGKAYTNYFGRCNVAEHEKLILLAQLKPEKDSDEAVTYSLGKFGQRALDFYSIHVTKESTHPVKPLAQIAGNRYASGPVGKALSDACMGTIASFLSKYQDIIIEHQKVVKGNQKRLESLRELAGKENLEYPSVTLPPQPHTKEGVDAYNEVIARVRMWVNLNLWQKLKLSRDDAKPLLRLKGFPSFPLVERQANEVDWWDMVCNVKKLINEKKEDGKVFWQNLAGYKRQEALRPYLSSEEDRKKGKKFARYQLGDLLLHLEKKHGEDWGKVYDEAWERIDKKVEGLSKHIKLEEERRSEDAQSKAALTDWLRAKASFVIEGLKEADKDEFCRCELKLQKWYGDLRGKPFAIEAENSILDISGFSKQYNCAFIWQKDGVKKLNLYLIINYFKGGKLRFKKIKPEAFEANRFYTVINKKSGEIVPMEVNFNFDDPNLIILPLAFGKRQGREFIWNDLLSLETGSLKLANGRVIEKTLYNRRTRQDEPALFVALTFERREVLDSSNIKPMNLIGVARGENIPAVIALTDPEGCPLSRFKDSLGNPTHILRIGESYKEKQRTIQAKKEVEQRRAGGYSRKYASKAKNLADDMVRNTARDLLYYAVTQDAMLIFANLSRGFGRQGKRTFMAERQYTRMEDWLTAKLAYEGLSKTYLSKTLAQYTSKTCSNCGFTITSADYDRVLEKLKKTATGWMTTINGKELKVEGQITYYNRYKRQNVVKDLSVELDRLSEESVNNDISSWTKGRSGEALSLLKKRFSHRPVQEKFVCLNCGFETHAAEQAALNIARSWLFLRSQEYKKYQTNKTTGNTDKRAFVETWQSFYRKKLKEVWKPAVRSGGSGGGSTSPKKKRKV

## non-targeting spacer gRNA ; human B2M locus
  activity (% HLA-negative cells): 8.44
